Measured values from patent US20230250190A1 (published 2023).

T1: T8 (Tn-MUC1) (PAPGST(α-GalNAc)APPAHGVTSAPDT(α-GalNAc)RPAPG-OH)
T1 peptide: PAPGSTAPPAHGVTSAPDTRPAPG

T2: T9 (Tn-MUC1) (PAPGSTAPPAHGVT(α-GalNAc)S(α-GalNAc)APDTRPAPG-OH)
T2 peptide: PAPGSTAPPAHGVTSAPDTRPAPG

T3: T11 (Tn-MUC1) (PAPGSTAPPAHGVT(α-GalNAc)SAPDT(α-GalNAc)RPAPG-OH)
T3 peptide: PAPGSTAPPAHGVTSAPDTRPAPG

T4: T4 (Tn-MUC1) (PAPGSTAPPAHGVT(α-GalNAc)SAPDTRPAPG-OH)
T4 peptide: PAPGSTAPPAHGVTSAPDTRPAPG

T5: S4 (sTn-MUC1) (PAPGSTAPPAHGVT(Neu5Ac-α(2-6)-GalNAc)SAPDTRPAPG-OH)
T5 peptide: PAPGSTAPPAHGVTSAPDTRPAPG

T6: S9 (sTn-MUC1) (PAPGSTAPPAHGVT(Neu5Ac-α(2-6)-GalNAc)S(Neu5Ac-a(2-6)-GalNAc)APDTRPAPG-OH)
T6 peptide: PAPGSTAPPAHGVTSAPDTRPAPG

T7: S11 (sTn-MUC1) (PAPGSTAPPAHGVT(Neu5Ac-α(2-6)-GalNAc)SAPDT(Neu5Ac-a(2-6)-GalNAc)RPAPG-OH)
T7 peptide: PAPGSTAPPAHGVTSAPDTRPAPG

B1: 190 (antibody, V domains shown)
VH: QVQLVQSGAEVKKPGASVKVSCKASGYAFTNYYIHWVRQAPGHGLTWMGVINPFDSSTDFAQKFQGRLTMTRDTSTSTVYMDLSSLRSEDTAVYYCARDYMRGHVVFDNWGQGTLVTVSS
B2: 86 (antibody, V domains shown)
VH: QVQLVQSGAEVKKPGASVKVSCKASGYPFINYYIQWVRQAPGQGLEWMGVINPFDGSTNYAQKFQGRVTVTRDTSTSTVFMDLSSLRSEDTAVYYCARDNMIGYVLFDYWGQGTLVTVSS
B3: 138 (antibody, V domains shown)
VH: QVQLVQSGAEVKKPGASVRVSCKASGYTFINYYLQWVRQAPGQGLEWMGTINPFDGSTHYAQKFQGRVTMTRDTSTSTVYMELSSLRSEDTAVYYCARDSMIGYVLFDYWGQGTLVTVSS
B4: 82 (antibody, V domains shown)
VH: QVQLVQSGAEVKKPGASVKVSCKASGYTFTSYYIHWVRQAPGQGLEWMGVINPYDSSTNYAQKFQGRVTMTRDTSTSTVFMDLSSLRSEDTAVYYCARDNMIGYVLFDYWGQGTLVTVSS
B5: SEQ ID NO 29 (bivalent monospecific MUC1 IgG) (antibody, V domains shown)
VH: QVQLVQSGAEVKKPGASVKVSCKASGYSFIHYYIHWVRQAPGQGLEWMGVINPFDGSTNYAQKFQDRVTVTRDTSTSTVFMDLSSLRSEDTAVYYCARDNMIGYVLFDDWGQGTLVTVSS
VL: not shown
B6: 33 (antibody, V domains shown)
VH: QVQLVQSGAEVKKPGASVRVSCKASGYPFINYYIQWVRQAPGQGLEWMGVINPFDGSTNYAQKFQDRVTVTRDTSTSTVFMDLSSLRSEDTAVYYCARDNMIGYVLLDYWGQGTLVTVSS
B7: 206 (antibody, V domains shown)
VH: QVQLVQSGAEVKKPGASVRVSCKASGYPFINYYIQWVRQAPGQGLEWMGVINPFDGSTNYAQKFQGRVTVTRDTSTSTVFMDLNSLRSEDTAVYYCARDSMIGYVLFDFWGQGTLVTVSS
B8: SEQ ID NO 178 (bivalent monospecific MUC1 IgG) (antibody, V domains shown)
VH: QVQLVQSGAEVKKPGASVKVSCKASGYTFNRHYIQWVRQAPGQGLEWMGTINPYDGSTFYAQKFQDRVTMTRDTSTSTVYMDLNSLKSEDTAVYYCARDYMRGHVLFDYWGQGTLVTVSS
VL: not shown
B9: 146 (antibody, V domains shown)
VH: QVQLVQSGAEVKKPGASVKVSCKASGYAFTSYYIHWVRQAPGQGLEWMGVINPYGGSTNYAQKFQGRVTMTRDTSTRIVYMDLSSLRSEDTAVYYCARDAMEGDSYFDYWGQGTLVTVSS
B10: 102 (antibody, V domains shown)
VH: QVQLVQSGAEVKKSGASVKVSCKASGYPFISYYIHWLRQAPGQGLTWMGVINPFDGSTDYAQKFQGRVTVTRDTSTSTVYMDLSSLRADDTAIYYCARDYMRGYVVFDYWGQGTLVTVSS
B11: 174 (antibody, V domains shown)
VH: EVQLVESGAEVKKPGASVKVSCKASGYTFNRYYLHWVRQAPGQGLEWMGVINPYDGSTNYAQKFRGRITMTRDTSTNTVYMELSSLRSEDTAVYFCARDAMEGDSYFDKWGQGTLVTVSS
B12: 41 (antibody, V domains shown)
VH: QVQLVQSGAEVKEPGASMTLSCKTSGYTFISNYIHWLRQAPGQGLEWLGVINPFGGATNYAQKFQGRVTMTRDTSTITVYMELSSLRSEDTAVYYCARDAMGGDSHFDYWGQGTLVTVSS
B13: 37 (antibody, V domains shown)
VH: QVQLVQSGAEVKKPGASVTVSCKTSGYTFTSYYIHWLRQAPGQGLEWMGVINPFGGATNYAQKFQGRVTMTRDTSTITVYMELSSLRSEDTAVYYCARDAMGGDSHFDHWGRGTLVTVSS
B14: 150 (antibody, V domains shown)
VH: QVQLVQSGAEVKTPGASVKVSCKASGYTFTNYYIQWVRQAPGQALEWMGVINPYDGSTHYAQKFQGRVTLTRDTSTTTVYMDLSSLRSEDAAVYYCARDYMLGYVVFDYWGQGTLVTVSS
B15: 194 (antibody, V domains shown)
VH: QVQLVQSGAEVKKPGTSVKVSCTASGYTFTNYYIQWVRQAPGQGLEWLGVINPYDGSTDYAQKFQGRVTLTRDTSTTTVYMELSSLRSEDTAVYYCARDYMLGYVVFDFWGQGTLVTVSS
B16: 198 (antibody, V domains shown)
VH: QVQLVQSGAEVKKPGASVKVSCKASGYTFINNYIQWVRQAPGQGLEWMGVINPYDGSIHYAQKFQGRVTLTRDTSTTTVYMELSSLRSEDTAVYYCARDYMIGYVVFEYWGQGTLVTVSS
B17: 130 (antibody, V domains shown)
VH: QVQLVQSGAEVKKPGASVRVSCKASGYTFINYYLQWVRQAPGQGLEWMGTINPFDGSTHYAQKFQGRVTLTRDTSTSTVYMELNSLRSDDTAVYYCARDYMIGYVLFDYWGQGTLVTVSS
B18: 170 (antibody, V domains shown)
VH: QVQLVQSGAEVKKPGASVQVSCKASGYTFINYYLQWVRQAPGQGLEWMGTINPFDGSTHYAQKFQGRVTMTRDTSTNTVYMELNSLRSEDTAVYYCARDRMIGYVLFDYWGQGTLVTVSS
B19: 13 (antibody, V domains shown)
VH: QVQLVQSGAEVKKPGASLKVSCKASGYTFTNYYIQWVRQAPGQGLEWMGVINPYDGSTNYAQKFQGRVTLTRDTSTTTVYMELSSLRSDDTAVYYCARDYMIGYVVFDYWGQGTLVTVSS
B20: 74 (antibody, V domains shown)
VH: QVQLVQSGAEVKKPGASVQVSCKASGYTFINYYLQWVRQAPGQGLEWMGTINPFDGSTHYEQNFQGRVTMTRDTSTNTVYMELNGLRSEDTAVYYCARDHMIGYILFDYWGQGTTVTVSS
B21: 142 (antibody, V domains shown)
VH: QVQLVQSGAEVKKPGASVMLSCKASGYIFTSYYIQWVRQAPGQGLEWMGVVNPYDGSTNYAQKFQGRVSITRDTSTSTVFMELNSLRSEDTAVYYCARDSMLGHVIFDFWGQGTLVTVSS
B22: 162 (antibody, V domains shown)
VH: QVQLVQSGAEVKKPGASVMLSCKASGYIFTSYYIQWVRQAPGQGLEWMGVVNPYDGSTNYAQKFQGRVTITRDTSTSTVFMELSSLRSEDTAVYYCARDNMLGHVIFDFWGQGTLVTVSS
B23: 62 (antibody, V domains shown)
VH: QVQLVESGAEVKKPGASVKVSCKASGYSFTSYYIQWVRQAPGQGLEWLAVINPIDGSTNYAQKFQGRVTVTRDTSTSTVYMELSSLRSEDTAVYYCARDYMRGFVVFDYWGQGTLVTVSS

Experiments:
Test in all cases: glycopeptide array
T8 (Tn-MUC1) = target: T1, T8 (Tn-MUC1)
T9 (Tn-MUC1) = target: T2, T9 (Tn-MUC1)
T11 (Tn-MUC1) = target: T3, T11 (Tn-MUC1)
T4 (Tn-MUC1) = target: T4, T4 (Tn-MUC1)
S4 (sTn-MUC1) = target: T5, S4 (sTn-MUC1)
S9 (sTn-MUC1) = target: T6, S9 (sTn-MUC1)
S11 (sTn-MUC1) = target: T7, S11 (sTn-MUC1)

| Binder | EC50 (T8 (Tn-MUC1)) | EC50 (T9 (Tn-MUC1)) | EC50 (T11 (Tn-MUC1)) | EC50 (T4 (Tn-MUC1)) | EC50 (S4 (sTn-MUC1)) | EC50 (S9 (sTn-MUC1)) | EC50 (S11 (sTn-MUC1)) |
| --- | --- | --- | --- | --- | --- | --- | --- |
| B1 | 0.108 mg/L | 0.12 mg/L | 0.122 mg/L | 0.102 mg/L | – | – | – |
| B2 | 0.061 mg/L | 0.05 mg/L | 0.068 mg/L | 0.057 mg/L | 0.074 mg/L | 0.105 mg/L | 13.1 mg/L |
| B3 | 0.106 mg/L | 0.096 mg/L | 0.123 mg/L | 0.116 mg/L | – | – | – |
| B4 | 0.196 mg/L | 0.167 mg/L | 0.227 mg/L | 0.145 mg/L | 0.173 mg/L | 0.83 mg/L | 58.6 mg/L |
| B5 | 0.121 mg/L | 0.118 mg/L | 0.126 mg/L | 0.104 mg/L | 0.118 mg/L | 0.22 mg/L | 6.96 mg/L |
| B6 | 0.079 mg/L | 0.071 mg/L | 0.088 mg/L | 0.076 mg/L | – | – | – |
| B7 | 0.084 mg/L | 0.066 mg/L | 0.088 mg/L | 0.068 mg/L | – | – | – |
| B8 | 0.095 mg/L | 0.09 mg/L | 0.108 mg/L | 0.103 mg/L | 0.098 mg/L | 0.108 mg/L | 0.335 mg/L |
| B9 | 0.104 mg/L | 0.086 mg/L | 0.116 mg/L | 0.081 mg/L | – | – | – |
| B10 | 0.101 mg/L | 0.102 mg/L | 0.111 mg/L | 0.087 mg/L | – | – | – |
| B11 | 0.174 mg/L | 0.144 mg/L | 0.192 mg/L | 0.178 mg/L | – | – | – |
| B12 | 0.114 mg/L | 0.113 mg/L | 0.134 mg/L | 0.1 mg/L | – | – | – |
| B13 | 0.144 mg/L | 0.13 mg/L | 0.158 mg/L | 0.157 mg/L | – | – | – |
| B14 | 0.135 mg/L | 0.098 mg/L | 0.157 mg/L | 0.126 mg/L | – | – | – |
| B15 | 0.099 mg/L | 0.082 mg/L | 0.109 mg/L | 0.1 mg/L | – | – | – |
| B16 | 0.121 mg/L | 0.121 mg/L | 0.137 mg/L | 0.111 mg/L | – | – | – |
| B17 | 0.116 mg/L | 0.117 mg/L | 0.14 mg/L | 0.125 mg/L | – | – | – |
| B18 | 0.123 mg/L | 0.127 mg/L | 0.141 mg/L | 0.116 mg/L | – | – | – |
| B19 | 0.145 mg/L | 0.134 mg/L | 0.158 mg/L | 0.153 mg/L | 0.156 mg/L | 0.279 mg/L | – |
| B20 | 0.118 mg/L | 0.096 mg/L | 0.137 mg/L | 0.111 mg/L | – | – | – |
| B21 | 0.108 mg/L | 0.091 mg/L | 0.126 mg/L | 0.089 mg/L | – | – | – |
| B22 | 0.043 mg/L | 0.037 mg/L | 0.063 mg/L | 0.037 mg/L | – | – | – |
| B23 | 0.07 mg/L | 0.045 mg/L | 0.097 mg/L | 0.042 mg/L | – | – | – |
